Data published in article PMC7225057.
Like-named read-outs stand apart in the source and are kept apart here.

Tests used:
[1] = biological target: FITC-sCT(22–32) (salmon); assay: fluorescence polarisation
[2] = biological target: biotinylated sCT(1–32) [C1A/C7A] (salmon); assay: BLI
[3] = biological target: biotinylated sCT(1–32) [C1A/C7A] (salmon); assay: BLI; remark: listed apart in the source
[4] = biological target: FITC-AM(37–52) [S45W/Q50W]; assay: fluorescence polarisation
[5] = biological target: FITC-AM(37–52) [S45W/Q50W]; assay: fluorescence polarisation; remark: listed apart in the source
[6] = biological target: Glycan-free CTR.38–141 WT (E. coli-produced, MBP-free CTR ECD) (human); assay: fluorescence polarisation
[7] = biological target: Endo H-treated CTR.38–141 WT (MBP-free CTR ECD) (human); assay: fluorescence polarisation
[8] = biological target: Endo H-treated CTR.38–141 N130D (MBP-free CTR ECD) (human); assay: fluorescence polarisation

Substance | Kd [1] [nM] | pKD [1] | Kd [4] [nM] | pKD [4] | other results
CTR.34–141 WT (MBP-free CTR ECD, glycosylated, no enzyme treatment) (domain or fragment) | 380 | 6.43 | – | – | –
Endo H-treated CTR.38–141 N130D (MBP-free CTR ECD) (domain or fragment) | 2000 | 5.7 | – | – | Kd [2]: 11900 nM; Kd [3]: 12400 nM
Endo H-treated CTR.38–141 WT (MBP-free CTR ECD) (domain or fragment) | 500 | 6.3 | – | – | kon [3]: 178000 M⁻¹ s⁻¹
Glycan-free CTR.38–141 WT (E. coli-produced, MBP-free CTR ECD) (domain or fragment) | 2700 | 5.57 | – | – | Kd [2]: 10800 nM; Kd [3]: 30900 nM
RAMP1-CLR.29–144 N123D (tethered RAMP1-CLR ECD fusion) (from UniProt O60894 24-111; Q16602 29-144) (receptor) | – | – | 740 | 6.13 | –
RAMP1-CLR.29–144 WT (tethered RAMP1-CLR ECD fusion, CGRP receptor ECD) (from UniProt O60894 24-111; Q16602 29-144) | – | – | 310 | 6.51 | Kd [5]: 280 nM; pKD [5]: 6.56
RAMP1-CLR.29–144 WT, PNGase F-treated (deglycosylated) (from UniProt O60894 24-111; Q16602 29-144) (receptor) | – | – | 1400 | 5.87 | –
salmon calcitonin sCT(22–32), unlabeled (peptide) | – | – | – | – | Ki [6]: 11000 nM; pKI [6]: 4.97; Ki [7]: 1600 nM; pKI [7]: 5.81; Ki [8]: 5600 nM; pKI [8]: 5.26
